Reference: article PMC11551761, “Probing the mechanism of nick searching by LIG1 at the single-molecule level”
Where a chain is given by its changes, count along the chain named.

Experiments:
LIG1 C-terminal = LIG1 C-terminal (human, UniProt P18858 261-919, del1-260); assay: BLI; no Mg2+ listed in buffer; 1 mM HEPES pH 7.4, 20 mM NaCl, 0.02% BSA, 0.002% Tween 20 (BLI, C-Trap, TIRF; TIRF plus oxygen scavenger and 10 mM Trolox); BLI sensors hydrated at 20 C, assay; conditions: protein: recombinant; tags: 6xHis (pET-24b); AF488 or Cy5 labelled for single-molecule assays; Methods says 3'); nicked duplex
LIG1 C-terminal, sequence (P18858 261-919, stated change not applied): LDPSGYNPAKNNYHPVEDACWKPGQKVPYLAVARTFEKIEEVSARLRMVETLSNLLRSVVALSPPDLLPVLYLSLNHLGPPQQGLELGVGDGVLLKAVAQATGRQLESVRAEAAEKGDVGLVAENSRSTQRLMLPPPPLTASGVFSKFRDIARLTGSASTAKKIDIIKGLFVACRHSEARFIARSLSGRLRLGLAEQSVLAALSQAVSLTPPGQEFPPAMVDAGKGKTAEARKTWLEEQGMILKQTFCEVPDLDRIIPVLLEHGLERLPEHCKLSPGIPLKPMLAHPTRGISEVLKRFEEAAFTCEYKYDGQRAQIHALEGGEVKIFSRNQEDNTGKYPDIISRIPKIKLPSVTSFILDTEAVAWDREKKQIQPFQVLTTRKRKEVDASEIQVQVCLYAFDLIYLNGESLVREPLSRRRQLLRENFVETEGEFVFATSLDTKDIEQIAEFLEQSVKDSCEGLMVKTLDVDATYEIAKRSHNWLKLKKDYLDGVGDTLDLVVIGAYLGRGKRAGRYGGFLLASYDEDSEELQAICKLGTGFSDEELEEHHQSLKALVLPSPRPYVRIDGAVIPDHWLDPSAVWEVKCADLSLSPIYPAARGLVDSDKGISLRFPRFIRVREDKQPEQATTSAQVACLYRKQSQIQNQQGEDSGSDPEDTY

LIG1 full-length [1] = target: T1, LIG1 full-length (human, UniProt P18858 1-919); assay: as above; conditions: protein: recombinant; tags: 6xHis (pET-24b); AF488 or Cy5 labelled for single-molecule assays; Methods says 3'); nicked duplex
T1 sequence (P18858 whole entry): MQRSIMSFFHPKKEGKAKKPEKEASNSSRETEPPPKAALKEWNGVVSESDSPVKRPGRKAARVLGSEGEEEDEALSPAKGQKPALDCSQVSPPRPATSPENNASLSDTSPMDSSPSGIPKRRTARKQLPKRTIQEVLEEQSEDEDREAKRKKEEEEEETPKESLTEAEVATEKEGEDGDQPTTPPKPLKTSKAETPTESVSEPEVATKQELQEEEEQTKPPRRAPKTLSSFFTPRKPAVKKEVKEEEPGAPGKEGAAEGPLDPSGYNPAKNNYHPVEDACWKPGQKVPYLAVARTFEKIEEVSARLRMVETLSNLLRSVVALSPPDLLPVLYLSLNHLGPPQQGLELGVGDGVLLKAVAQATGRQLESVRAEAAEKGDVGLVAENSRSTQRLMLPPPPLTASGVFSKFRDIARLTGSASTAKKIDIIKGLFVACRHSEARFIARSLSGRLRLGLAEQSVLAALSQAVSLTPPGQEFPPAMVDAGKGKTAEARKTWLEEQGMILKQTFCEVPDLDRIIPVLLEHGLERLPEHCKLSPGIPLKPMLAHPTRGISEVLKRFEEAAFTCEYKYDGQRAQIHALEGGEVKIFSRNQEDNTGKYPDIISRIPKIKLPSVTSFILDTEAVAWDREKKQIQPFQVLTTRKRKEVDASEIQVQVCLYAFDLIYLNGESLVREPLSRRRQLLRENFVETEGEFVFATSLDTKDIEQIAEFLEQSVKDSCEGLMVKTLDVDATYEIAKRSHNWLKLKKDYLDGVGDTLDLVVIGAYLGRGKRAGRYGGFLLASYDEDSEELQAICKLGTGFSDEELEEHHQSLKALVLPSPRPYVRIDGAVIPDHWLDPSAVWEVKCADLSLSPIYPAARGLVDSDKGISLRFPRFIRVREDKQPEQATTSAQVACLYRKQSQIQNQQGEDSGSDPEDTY

LIG1 full-length [2] = target: T1, LIG1 full-length; assay: single-molecule TIRF; no Mg2+; bound lifetimes 0.9 s (70%), 8 s (30%); unbound 42 s; 1 mM HEPES pH 7.4, 20 mM NaCl, 0.02% BSA, 0.002% Tween 20 (BLI, C-Trap, TIRF; TIRF plus oxygen scavenger and 10 mM Trolox); BLI sensors hydrated at 20 C, assay; conditions: protein: recombinant; tags: 6xHis (pET-24b); AF488 or Cy5 labelled for single-molecule assays; label: 5'-biotin on Up; 3'-AF488 on Down; nicked duplex, blunt; nick between 18-nt Up and 16-nt Down on 34-nt template

B1: nick DNA 3'-dG:C/5'-Bio (BLI) (dsDNA)
DNA 1: CATGGGCGGCATGAACCGGAGGCCCATCCTCACC
DNA 2: GGTGAGGATGGGCCTCCGGTTCATGCCGCCCATG
modifications: single nick
Q: With B1 as the binder, how does the Kd (LIG1 C-terminal) read?
A: 196 nM

Q: What about the Kd (LIG1 full-length [1]) of the same binder?
A: 95 nM

B2: 34-mer single-nick DNA (Up-OH + Down / Template T) (dsDNA)
DNA 1: CATGGGCGGCATGAACCA
DNA 2: GAGGCCCATCCTCACC
DNA 3: B1 DNA 2 with C17T
modifications: 5'-phosphate on Down; 3'-OH at nick
Q: Does B2 bind (LIG1 full-length [2])?
A: binds
